Measured values taken from the supplement of paper PMC12636428.

Tested on: Saccharomyces cerevisiae
Assay: transcriptional activation domain activity (GFP:mCherry ratio, weighted mean of sorted bins, harmonized to initial dataset scale) (arbitrary fluorescence ratio units); higher = stronger transcriptional activation
Conditions: beta-estradiol 1 µM; induction time 4 h
In short: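 Sorting into 8 bins by GFP:mCherry ratio followed a 4-hour hold at 30 °C after cultures were diluted 1:5 into SC with 1 uM beta-estradiol. The yeast diploids carried a GFP reporter and had barcoded protein tiles, fused to an estradiol-inducible synthetic transcription factor, integrated at URA3. Barcodes were then sequenced, and tiles with under 50 reads were removed. Activation activity is the read-weighted mean of bin median fluorescence, averaged across barcodes and linearly mapped onto the initial dataset scale.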

Sequence	transcriptional activation domain activity
SAFGSSANAPTSGGFGAFGQPVAAAATTSAFGSTTPFGAAAPSPAAPAAAASP	25700
SAGTAQAGKKPRILLKVNGRSYQRVDCVGRGGSGKVYKVTAENGKMFAMKRVS	45100
SAGYYSRVSFFFFSNYHLIILHVFFFFFFFVYWVYFSSSDFFFLLGLTIFCFF	57900
SAHWILKAYYTDRRVLFGFCFGNEAFFMLIYLMEYLDGFCFYFVSFLALLAFP	57200
SAKEEPGAAETDADTDPEPAAGKKRKRQEDKGEAQEGGSGKKSVGGKKAKQAE	19200
SAKSLRLTVDEVKMLHRPALWYLIVGLVDTVAAARLRYFSFILHRPPLRQTLS	47800
SALFCKIWTIIQAYYIVISFISIHNCMPCTMPFHHECVGSIPLWLWVTWLPSI	40400
SALRYYFKVELYNLPARQWFERCFFTPLEVFNTAWLAYILLAQTTGSMVNCAC	38200
SAPAPVRVVSLTKEEPVPEVKEEVKEEVKPAPAAAAPKPKPAAAKKETPAAVK	13400
SAPNDSTTAPTNASNIANTASVNKQMYFMNMNMNNNPHALNDPSILETLSPFF	71400
SASAAAKPAAAPLKKSTSGSLASKPAMSSTKPAAAPAAAPARRASVVPAKSSA	33900
SASASAAPAASTAGSADKSGGAQEKHRGGRRRGGRGRGDKESGGKEGGSKNTE	34400
SASASASGATASASASAAAGAGGKGGFGGKGGFGGGFGGKGQGGKGGKGGAAA	34000
SASEIRVDSFRKIMSIPLAIFTLRPRHVFVAVRRVCRSCTNYLVVLALYMALF	51800
SASKPAAVTDADEAARPVKKPARPSPGDEDKPEKKEESSRKIETQQPKKAAAQ	25500
SASPDESRRSSHRSRRDRDYEKRRDRGEERDSDHDHRRKSHSHRDRERDRGRD	30000
SASSKNGDKPKTVRKKGGEPEVSKESTPKPRTTARNRKGAKQEEAKNKTITGR	41300
SASSNTRPREPSPEPYRKPREESRDRKRHRSRDRRRDRSPGGKKSRAREGRRD	35900
SASSPAATSPSACPTSSPRLRSPSSPSPSSQPPASPCTRSCPPPRPAARTARP	47500
SASSRESSASASHSASKSESSAAASRTSSAPATQSTGAAVANRAGVVGAVAGG	57700
SASSSAPRKPVSISIGGGGGGAAAAAAAPPADKKPVSISIGGSSAKAAAPAAA	38800
SATARTTTTTRTATSTTTTAKPSTTTRPSTTTTTTAARRPGTTTTTPARTSVT	38700
SATEFVTVGGTGNVYHWDMEYSFSRNDDDNEDEVRVAAPEELQGQCLKFFHTG	51000
SATIFSPFDTHLLEPVPSSSSESSAEVMFHGKQMKNFLIDINSFTNQQQQAQD	38700
SATPATSEAAKPATSSLFGNGSSTTTAGATAAKPSLFGAAQSTPTTQPATTGA	38800

Sequence	transcriptional activation domain activity
SCCMLQVISGIAMGNSCLARMNFWPVIASNFPWLLIVIINYTMFFNWMLSYFL	62400
SCDNIDNAEDKCSYALEYCMDATPGLLNYIQLYYCSSVKPFVFIVLCLWLLFL	36000
SCFIFLGHHFDVFVSFLLKIGLGDEMLGVLWFFFSCVLLVGAFLLRLLGFYHT	67900
SCIVLYACSKIIIYLFLMEKVYVVTAVGATRANFMLYRINLSLLIPYVGIFAL	52300
SCLAVITWDVLNFLIVDCHIIFYRKFNWRVLVFIVARLSPYCFFLSLSISLTS	60900
SCLMWVVSCALFMCGQLVFFDLNYYWNLTLVSYFLELSIVLVLMFMKLWLSKR	30400
SCMVYSIHNTTILILSFSPSPLNFFFFSSWLLFIFFFFLFLFLFLFLFLFLFL	39900
SCTGVFRAYSILIIMVMMLSEVIILFRTCVLIRRERHGHYIICILCFFSLCVL	49600
SDAAVELCVAAAPRNGESNKAVVQVLSHVSTHHLHLESLLTCLSQALKIPKMD	42000
SDASAGAEAGTDGSAAPPKKKPRQKRAAPLPGEEGYDAAASKPKRAPRKRKAS	25300
SDASEGSKGRAREDPSDRAVVEYQGLSRFSSIPEKEKVWAYVVKIVKLLATTK	34600
SDDDEPPAKAAPKPKPRPVGKAKAKAREPEPESDGEVSAVQKKKKRKIGIFQS	37600
SDDETSRSHKKSSRRDTSQDDAERGRHHHKSSRHKGERDRHHKIRSRSRSPAR	13900
SDDGGSSSEIIRVLGGPSIGDIRSRLIRLMPSAPPNSPLDAICRLLAYRLPVQ	37600
SDDSSEASAIDSGDSSSQSSSDSDSEDAKKKTRRKTAKAKAKAKSKSKNSKKV	24800
SDDVNSTMEDDDTPIEKHWLNIDQPLGSEKETTTLSILWMLLLLQLSHICTDP	76600
SDEEEAEVIPAKKARGKKAPVKQEEIQSDEEVLTAKKPAKQARGKKAPAAAVK	30600
SDEEEKPKPKQGKKKAKAPKKEEEFEGEPEEEEKPKPKKTNGRKKAVKAEEED	36300
SDEEGEMADRLADDDLDVSVLKTAKELAETAALYRIRNRRPTAHLVLPRVVEG	40200
SDESTKADSGNKDNPGGAEKSGDEKEKEKDGGTSRMRSRKGKFRKNKAEDIEK	30400
SDGEESDAGAKERKRKKKRRAKDSESESSDEEEKRKKTKRSKSKSKRRSPSPS	25700
SDKKAGNDKEEKKEEKKADGSEEKGKKVKDAEKEKEDKKSQQSEKKADDNGDK	25000
SDKLHRLRWRLGSLEDVLTTFSYLKFEQYLIPIVYLLLRRHTNIIFLAAHWVL	64000
SDNGTENNGETKKRYDPKDPLRPRRKKARRACYACQRAHLTCGDERPCQRCIK	16400
SDNQPDFVDFQELLDNDTLGNDLLETTAVLKEFELLHDDSVSATATSNEIDLS	115000

Sequence	transcriptional activation domain activity
SDSDEEDEDERAEDAEVDTSASVNRLRDAQAEVETGDVTRRIAIVNLDWDHIK	29200
SDSEEEDDAEKEDEEEEQRPKKTVKVEEVVKKAFGADGATVWVGQLSYEATSD	32500
SDSGSEGDSDSDRGRSRKRKKGKSTGKSKSKSKSKSRRNASGSDDESESGSGS	35300
SDSGSEVDEKNNKNEKIDSESIKNNESKDDIPSKDENSSNDNREISKTDEEGH	35100
SDSQKSGKIWGLCCTDSFGCLDLIIGLDLSDVLLVIQWRSTCDMCTLWQRLGH	53500
SDVEDEESSEDEAPARGKKRGRAGQAAKRRRESSLLVTVFADVLVTDVSVFVG	59400
SDVLFVSLNLLYFWCYLIPLLATIWIRLGNADSTINDRLSVHFYSVAFLLLLF	32800
SDYGLHLRHVLLLSPTIFPIIFAALMGRCFRSIGLYRAERGISLIRLEQLIGC	55900
SEAESEAEAEAEEATEPEVSQEKPKRGRKKKEVEVEIKEKPSRKPAGRPKKEK	12300
SEAVDFEVPDDFVVSWTGDLLPHTIIYCDFPPPMSVALFEPQPSDMDFDWFWI	71600
SEDERPRGGLKGRKGKKRVEREETSGGSDESSDEEGKRGKAKAGGKREVRTRS	31900
SEEAQEEAQQPKKKKRTRASDMWKEEGKAEKKEKKKAKKGKKHSKLEEPAEKA	14500
SEEDEIKAGEEVPKKRRRRQALSCTECKRRKIKCDRQHPCGPCVRRTEADKCH	52300
SEEETSRSRSSKKHAISSGSDSDRDSRKVRKSRHSSSDEERYQKSHKSSSRRR	52400
SEESEGETGGKRKRKASSSSGRGEKGKKSKRGGGPEARTRKRKAAAETAETGE	23500
SEGLLCPLPRYPPHPIVSQLMQTSALRSLQTIVQLQRAHFMTLLFWNILLAFY	57100
SEIALSSSTHSLRLYGKSVGGGKVAGMVRMAYSAKSGVTVKVSVRSEEGGLAG	37500
SEPEEEDSSSKKRKRKADDEGKKKAKKGKKAAGSDDEDEDANSVHISVTQAVS	36600
SEPELYVPQFKLDPVNGFWFPHFVKYIILILMLGLYVLIIFWTFMICKVVYRL	33300
SEPTAGNEGKEETSAPKKEESKPAESEKKAEEPKQEQPKKEEKKAEGKPASGS	31400
SERLKNTGASGERAREGISINAGLASLGKVISQLSSRQPGAHVSYRDSKLTRL	48800
SERRSHNQRDPERRDRNSNQSKRRRVDDSDSESDRRNRRRRVEHSSRKSHRSR	43800
SERSERRADERSSRNGPSEAERGSERERGGREKRGGDRESSRRERERGGEARE	17200
SESDTDSEEEEIEEDEGAAETRPGIRLQREEKAVETGEITNRLAIVNIDWDHL	32000
